Measurements taken from US20160122768A1 (LA JOLLA INSTITUTE FOR ALLERGY AND IMMUNOLOGY, published 2016).

T1: C-terminally HA-tagged wild type (WT) RPTPκ (NM 008983.2), full-length, immunoprecipitated from COS-1 cells (UniProt P35822 26-1457)
T1 construct: It was held on anti-HA immunoprecipitate beads in the assay; also called HA-tagged WT RPTPκ; full-length RPTPk; not shown: C-terminal HA tag
T1 sequence (looked up): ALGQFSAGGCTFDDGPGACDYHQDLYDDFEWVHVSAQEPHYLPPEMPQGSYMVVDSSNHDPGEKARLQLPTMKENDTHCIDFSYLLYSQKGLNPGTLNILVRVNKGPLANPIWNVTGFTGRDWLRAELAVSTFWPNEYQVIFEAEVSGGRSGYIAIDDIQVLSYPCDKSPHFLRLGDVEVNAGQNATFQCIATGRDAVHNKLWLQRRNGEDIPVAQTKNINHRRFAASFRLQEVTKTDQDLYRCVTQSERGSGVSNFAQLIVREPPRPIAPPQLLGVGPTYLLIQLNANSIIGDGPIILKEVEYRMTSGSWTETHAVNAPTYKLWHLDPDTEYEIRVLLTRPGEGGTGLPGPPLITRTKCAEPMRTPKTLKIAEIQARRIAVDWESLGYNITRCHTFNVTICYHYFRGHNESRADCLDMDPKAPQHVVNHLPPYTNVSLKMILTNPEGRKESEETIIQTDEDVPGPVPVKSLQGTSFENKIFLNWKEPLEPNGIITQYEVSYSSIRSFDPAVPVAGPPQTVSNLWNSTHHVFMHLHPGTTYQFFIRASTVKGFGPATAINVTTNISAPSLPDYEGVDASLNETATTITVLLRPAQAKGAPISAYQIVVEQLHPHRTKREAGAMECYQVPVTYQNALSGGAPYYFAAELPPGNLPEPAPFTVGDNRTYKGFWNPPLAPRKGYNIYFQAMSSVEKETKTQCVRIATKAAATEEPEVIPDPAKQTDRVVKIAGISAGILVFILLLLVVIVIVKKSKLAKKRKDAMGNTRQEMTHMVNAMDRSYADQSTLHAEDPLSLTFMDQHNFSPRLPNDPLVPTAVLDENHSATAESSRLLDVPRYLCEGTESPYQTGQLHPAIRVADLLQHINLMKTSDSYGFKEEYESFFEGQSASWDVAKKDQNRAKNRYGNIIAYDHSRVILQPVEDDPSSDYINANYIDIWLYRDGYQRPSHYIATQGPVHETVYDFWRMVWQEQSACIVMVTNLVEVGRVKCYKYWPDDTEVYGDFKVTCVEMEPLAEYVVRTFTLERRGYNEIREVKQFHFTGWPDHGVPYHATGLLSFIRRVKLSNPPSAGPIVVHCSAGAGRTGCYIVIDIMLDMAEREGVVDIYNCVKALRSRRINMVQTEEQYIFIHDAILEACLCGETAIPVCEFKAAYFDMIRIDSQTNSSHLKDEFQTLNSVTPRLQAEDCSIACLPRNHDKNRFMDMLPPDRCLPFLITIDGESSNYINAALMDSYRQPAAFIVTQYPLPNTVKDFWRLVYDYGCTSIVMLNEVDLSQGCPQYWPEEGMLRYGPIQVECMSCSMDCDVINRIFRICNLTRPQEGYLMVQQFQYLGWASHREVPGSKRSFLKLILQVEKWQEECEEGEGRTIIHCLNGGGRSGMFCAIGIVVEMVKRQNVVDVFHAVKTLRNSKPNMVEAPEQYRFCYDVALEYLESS

B1: S-tagged-iPTPκ-D1051A, substrate-trapping mutant of the catalytic domain of RPTPκ (aa865-1156 of NP_002835.2) (enzyme, not shown: small tags and cut ends)
chain: HPAIRVADLLQHINLMKTSDSYGFKEEYESFFEGQSASWDVAKKDQNRAKNRYGNIIAYDHSRVILQPVEDDPSSDYINANYIDGYQRPSHYIATQGPVHETVYDFWRMIWQEQSACIVMVTNLVEVGRVKCYKYWPDDTEVYGDFKVTCVEMEPLAEYVVRTFTLERRGYNEIREVKQFHFTGWPAHGVPYHATGLLSFIRRVKLSNPPSAGPIVVHCSAGAGRTGCYIVIDIMLDMAEREGVVDIYNCVKALRSRRINMVQTEEQYIFIHDAILEACLCGETAIPVCEFK
notes: Numbering counts on NP_002835.2, which may differ from the canonical UniProt isoform; also called iPTPk-D1051A; iPTPK-D1051A
B2: YES (endogenous, from RA FLS lysates) (enzyme)
chain: not shown

What was measured:
[1] = biological target: FYN (endogenous, from RA FLS lysates) (human, UniProt P06241 2-537, limits assumed); assay: substrate-trapping pull-down of RA FLS lysates with agarose-bound S-tagged iPTPκ-D1051A, Western blotting
Sequence of FYN (endogenous, from RA FLS lysates) (P06241 2-537 limits assumed): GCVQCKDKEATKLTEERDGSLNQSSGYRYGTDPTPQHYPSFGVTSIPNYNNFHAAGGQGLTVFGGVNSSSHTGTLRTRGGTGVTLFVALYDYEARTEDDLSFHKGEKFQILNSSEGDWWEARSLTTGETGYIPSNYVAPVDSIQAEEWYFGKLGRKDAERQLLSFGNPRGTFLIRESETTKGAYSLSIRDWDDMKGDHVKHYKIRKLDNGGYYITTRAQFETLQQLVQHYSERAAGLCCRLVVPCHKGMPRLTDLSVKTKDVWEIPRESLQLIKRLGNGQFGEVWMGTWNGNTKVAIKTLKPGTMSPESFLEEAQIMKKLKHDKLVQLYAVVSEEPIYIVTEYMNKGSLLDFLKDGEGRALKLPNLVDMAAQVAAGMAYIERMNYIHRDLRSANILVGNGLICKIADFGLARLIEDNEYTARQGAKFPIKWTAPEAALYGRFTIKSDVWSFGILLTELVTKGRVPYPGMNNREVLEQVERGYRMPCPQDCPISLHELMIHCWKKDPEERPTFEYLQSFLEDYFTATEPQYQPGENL
Protocol: (§1) Accordingly, cDNA (codon optimized for expression in E. coli [Genscript, Piscataway, N.J.]) encoding a substrate-trapping mutant of the catalytic domain of RPTPκ (iPTPK-D1051A, aa865-1156 of NP_002835.2) was cloned into the pET30c vector. S-tagged-iPTPK-D1051A was isolated from E. coli using S-protein agarose (EMD Millipore). RA FLS were lysed in RIPA buffer containing 10 μg/mL aprotinin, 10 μg/mL leupeptin, 10 μg/mL soybean trypsin inhibitor, 1 mM phenylmethylsulfonyl fluoride and 5 mM iodoacetamide. Lysates were treated with 10 mM dithiothreitol for 10 min, and then diluted 10-fold in buffer containing 25 mM Tris-HCl pH 7.6, 150 mM NaCl and 1 mM ethylenediaminetetraacetic acid. Agarose-bound S-tagged-iPTPκ-D1051A was incubated with RA FLS lysates for 3 hr at 4° C., washed in the dilution buffer, and subjected to Western blotting.

[2] = biological target: B2; assay: as above
Protocol: as §1

[3] = biological target: T1, C-terminally HA-tagged wild type (WT) …; assay: pull-down of RA FLS lysates with immunoprecipitated HA-tagged RPTPκ, Western blotting
Protocol: In vitro Pull-Down Assay. HA-tagged WT RPTPκ was overexpressed in COS-1 cells. Cells were lysed in THE buffer (20 mM Tris-HCl pH 7.5, 150 mM NaCl, 5 mM EDTA pH 8.0 and 1% NP-40) containing 10 μg/mL aprotinin, 10 μg/mL leupeptin, 10 μg/mL soybean trypsin inhibitor, and 1 mM phenylmethylsulfonyl fluoride. RPTPκ was immunoprecipitated using anti-HA antibody (Covance, Princeton, N.J.). RA FLS were lysed in RIPA buffer containing 10 μg/mL aprotinin, 10 μg/mL leupeptin, 10 μg/mL soybean trypsin inhibitor, 1 mM phenylmethylsulfonyl fluoride and 5 mM iodoacetamide. Lysates were treated with 10 mM dithiothreitol for 10 min, and then diluted 10-fold in buffer containing 25 mM Tris-HCl pH 7.6, 150 mM NaCl and 1 mM ethylenediaminetetraacetic acid. Immunoprecipitates were incubated with RA FLS lysates for 3 hr at 4° C., washed in the dilution buffer, and subjected to Western blotting.
We next investigated if RPTPk directly interacts with and/or dephosphorylates SFKs. HA-tagged RPTPκ was immunoprecipitated from COS-1 cells and incubated in vitro with RA FLS lysates, and pull-down was subjected to Western blotting. Both full-length RPTPk immunoprecipitated from COS-1 cells and a recombinant substrate-trapping mutant of the RPTPk catalytic domain (iPTPk-D1051A) precipitated SRC from RA FLS lysates in pull-down assays, but not YES or FYN (SFKs also expressed in FLS).

binding result [1] | binding result [2] | binding result [3] | Binder
no binding | no binding | – | B1
– | – | no binding | B2
